Values quoted from earlier work, collected in patent US8679781B2, “In vitro peptide expression library” (Isogenica Limited, priority 2002, dated 2014).

Target: double stranded DNA oestrogen receptor target HRE nucleotide sequence
Conditions: fragment expressed in E. coli; similar to the parent molecule; read-out: affinity

Kd: 0.5 nM
B1: oestrogen receptor DNA binding domain fragment (amino acids 176-282): oestrogen receptor DNA binding domain fragment (amino acids 176-282) expressed in E. coli (protein, UniProt P03372 176-282, looked up, fragment)
chain: MESAKETRYCAVCNDYASGYHYGVWSCEGCKAFFKRSIQGHNDYMCPATNQCTIDKNRRKSCQACRLRKCYEVGMMKGGIRKDRRGGRMLKHKRQRDDGEGRGEVGS
